Results taken from article PMC8570500 (2021).

B1: HA-Vpx HIV-2.Gh1 WT [HIV-2 (Ghana-1 strain)] / DCAF1, endogenous (DDB1- and Cul4A-associated factor 1) [human (endogenous in HeLa)] (parent complex)
chain 1: MTDPRERVPPGNSGEETIGEAFEWLDRTIEALNREAVNHLPRELIFQVWQRSWRYWHDDQGMSPSYTKYRYLCLMQKAVFIHFKRGCTCLGGGHGPGGWRSGPPPPPPPGLV
chain 2: not shown

Variants of: B1
Assay: co-immunoprecipitation (anti-Flag IP of TASOR-Flag, western blot band quantification); Ternary read-out: endogenous DCAF1 recovered with TASOR-Flag (m24) in the presence of this HA-Vpx mutant, HeLa cells; lane 11; no value printed for the WT lane

With chain 1 V48A as the variant, how does the screen value read?
The screen value was 0.5.

Variants of: B1
Assay: co-immunoprecipitation (anti-Flag IP of TASOR-Flag, western blot band quantification); Ternary read-out: endogenous DCAF1 recovered with TASOR-Flag (m24) in the presence of this HA-Vpx mutant, HeLa cells; lane 12; no value printed for the WT lane

Which screen value does the source give for chain 1 Q47A, chain 1 V48A here?
Its screen value is 0.2.

Variants of: B1
Assay: co-immunoprecipitation (anti-Flag IP of TASOR-Flag, western blot band quantification); Ternary read-out: endogenous DCAF1 recovered with TASOR-Flag (m24) in the presence of this HA-Vpx mutant, HeLa cells; lane 10; no value printed for the WT lane

How did the screen value turn out when chain 1 Q47A was run?
Its screen value is 1.
